Data: US20220002395A1 (FAPON BIOTECH, published 2022)
Read-outs that look alike come from different tables or passages of the source.

Tests used:
[1] = biological target: T1, Plasmodium falciparum histidine-rich protein II (HRP-II) (Plasmodium falciparum, UniProt P05227 22-332); experiment: indirect ELISA, four antigen coating concentrations
T1 construct: Coating antigen of all ELISAs; also called HRP-II protein; MA-HRPII Ag protein
T1 sequence (looked up): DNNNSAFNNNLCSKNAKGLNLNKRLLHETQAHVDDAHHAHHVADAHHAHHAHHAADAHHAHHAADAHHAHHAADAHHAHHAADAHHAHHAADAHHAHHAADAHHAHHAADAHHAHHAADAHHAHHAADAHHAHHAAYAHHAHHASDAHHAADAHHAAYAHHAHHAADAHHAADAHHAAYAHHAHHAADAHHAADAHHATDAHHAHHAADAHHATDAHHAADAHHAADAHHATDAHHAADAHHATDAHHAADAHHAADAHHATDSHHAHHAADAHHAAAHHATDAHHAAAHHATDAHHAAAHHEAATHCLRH

[2] = biological target: T1, Plasmodium falciparum histidine-rich …; experiment: as above; remark: listed apart in the source
Protocol: The OD values corresponding to different antibody concentrations with different coating concentrations are obtained. Under the same coating concentration, the antibody concentrations are used as an abscissa, the OD values are used as an ordinate, and a logarithmic plot is made. […] An average value thereof is taken and a reciprocal thereof is calculated to get the affinity constant KD.

[3] = biological target: T1, Plasmodium falciparum histidine-rich …; experiment: indirect ELISA, coated MA-HRPII Ag 1 ug/ml, antibody 200 ng/ml
[4] = biological target: T1, Plasmodium falciparum histidine-rich …; experiment: indirect ELISA, coated MA-HRPII Ag 1 ug/ml, antibody 0.32 ng/ml
[5] = biological target: T1, Plasmodium falciparum histidine-rich …; experiment: indirect ELISA, coated MA-HRPII Ag 1 ug/ml, antibody 1.6 ng/ml
[6] = biological target: T1, Plasmodium falciparum histidine-rich …; experiment: indirect ELISA, coated MA-HRPII Ag 1 ug/ml, antibody 8 ng/ml
[7] = biological target: T1, Plasmodium falciparum histidine-rich …; experiment: indirect ELISA, coated MA-HRPII Ag 1 ug/ml, antibody 1000 ng/ml
[8] = biological target: T1, Plasmodium falciparum histidine-rich …; experiment: indirect ELISA, coated MA-HRPII Ag 1 ug/ml, antibody 40 ng/ml
[9] = biological target: T1, Plasmodium falciparum histidine-rich …; experiment: indirect ELISA, four antigen coating concentrations; remark: listed apart in the source
Protocol: The OD values corresponding to different antibody concentrations with different coating concentrations are obtained. Under the same coating concentration, the antibody concentrations are used as an abscissa, the 00 values are used as an ordinate, and a logarithmic plot is made. […] An average value thereof is taken and a reciprocal thereof is calculated to get the affinity constant KD.

B1: Anti-HRP-II 3R5 monoclonal antibody (recombinant, expressed in CHO cells; WT) (antibody, mouse IgG2b, kappa, V domains shown)
VH: EVQLQQSGPEVVKPGASVKISCKASGSTLTEYYMNWVKQSHGKGLEWIGDLNPINGGTPYQQKFRDKATLTVDKSSNTAYMELRSLTSEDSALYYCTRGAEEYWGQGTTLTVSS
VL: DVVLTQTPLSLSVTIGQPASISCKSSQSIIYSNGKIYINWFQQRPGQSPKRLMYQLSKIDPGIPDRFSGSGSETDFTLKISRVEAEDLGVYYCLQGTYSPNTFGGGTKLEIKR
notes: Mouse IgG; also called Anti-HRP-H3R5; CHO transient-transfected cell supernatant
Kd [1]: 0.633 nM
Kd [2]: 0.633 nM
OD value at 450 nm (ref 630 nm) [3]: 1.97 OD
OD value at 450 nm (ref 630 nm) [4]: 0.058 OD
OD value at 450 nm (ref 630 nm) [5]: 0.053 OD
OD value at 450 nm (ref 630 nm) [6]: 0.122 OD
OD value at 450 nm (ref 630 nm) [7]: 2.34 OD
OD value at 450 nm (ref 630 nm) [8]: 0.402 OD

B2: Mutation 1-45 (antibody, mouse IgG2b, kappa, V domains shown)
VH: EVQLQQSGPEVVKPGASVKISCKASGYTITDYYMNWVKQSHGKGLEWIGDLNPINGGTAYNQKFRDKATLTVDKSSNTAYMELRSLTSEDSALYYCTKGAEDYWGQGTTLTVSS
VL: DVVLTQTPLSLSVTIGQPASISCKSSQSILYSQGKIYLNWFQQRPGQSPKRLMYQLSKLEPGIPDRFSGSGSETDFTLKISRVEAEDLGVYYCLQGTYYPQTFGGGTKLEIKR
notes: Mutation 1 as framework
Kd [9]: 0.384 nM

B3: Mutation 1-46 (antibody, mouse IgG2b, kappa, V domains shown)
VH: EVQLQQSGPEVVKPGASVKISCKASGYTITDYYMNWVKQSHGKGLEWIGDINPINGGTAYNQKFRDKATLTVDKSSNTAYMELRSLTSEDSALYYCTRGAEDYWGQGTTLTVSS
VL: DVVLTQTPLSLSVTIGQPASISCKSSQSILYSQGKIYLNWFQQRPGQSPKRLMYQVSKLDPGIPDRFSGSGSETDFTLKISRVEAEDLGVYYCLQGTYTPQTFGGGTKLEIKR
notes: Mutation 1 as framework
Kd [9]: 0.0721 nM

B4: Mutation 1-49 (antibody, mouse IgG2b, kappa, V domains shown)
VH: EVQLQQSGPEVVKPGASVKISCKASGYTLTDYYMNWVKQSHGKGLEWIGDINPIQGGTAYNQKFRDKATLTVDKSSNTAYMELRSLTSEDSALYYCTKGAEDYWGQGTTLTVSS
VL: DVVLTQTPLSLSVTIGQPASISCKSSQSLLYSQGKIYLNWFQQRPGQSPKRLMYQISKLEPGIPDRFSGSGSETDFTLKISRVEAEDLGVYYCLQATYTPQTFGGGTKLEIKR
notes: Mutation 1 as framework
Kd [9]: 0.0956 nM

B5: Mutation 1-48 (antibody, mouse IgG2b, kappa, V domains shown)
VH: EVQLQQSGPEVVKPGASVKISCKASGYTITDYYMNWVKQSHGKGLEWIGDLNPIQGGTAYNQKFRDKATLTVDKSSNTAYMELRSLTSEDSALYYCTRGAEDYWGQGTTLTVSS
VL: DVVLTQTPLSLSVTIGQPASISCKSSQSLLYSQGKIYLNWFQQRPGQSPKRLMYQISKLDPGIPDRFSGSGSETDFTLKISRVEAEDLGVYYCLQGTYYPQTFGGGTKLEIKR
notes: Mutation 1 as framework
Kd [9]: 0.333 nM

B6: Mutation 1-50 (antibody, mouse IgG2b, kappa, V domains shown)
VH: EVQLQQSGPEVVKPGASVKISCKASGYTITDYYMNWVKQSHGKGLEWIGDVNPIQGGTAYQQKFRDKATLTVDKSSNTAYMELRSLTSEDSALYYCTRGAEDYWGQGTTLTVSS
VL: DVVLTQTPLSLSVTIGQPASISCKSSQSLLYSNGKIYLNWFQQRPGQSPKRLMYQLSKLEPGIPDRFSGSGSETDFTLKISRVEAEDLGVYYCLQATYYPQTFGGGTKLEIKR
notes: Mutation 1 as framework
Kd [9]: 0.382 nM

B7: Mutation 1-47 (antibody, mouse IgG2b, kappa, V domains shown)
VH: EVQLQQSGPEVVKPGASVKISCKASGSTITDYYMNWVKQSHGKGLEWIGDVNPINGGTAYNQKFRDKATLTVDKSSNTAYMELRSLTSEDSALYYCTKGAEDYWGQGTTLTVSS
VL: DVVLTQTPLSLSVTIGQPASISCKSSQSILYSQGKIYLNWFQQRPGQSPKRLMYQVSKLEPGIPDRFSGSGSETDFTLKISRVEAEDLGVYYCLQATYSPQTFGGGTKLEIKR
notes: Mutation 1 as framework
Kd [9]: 0.0828 nM

B8: Mutation 3 (antibody, mouse IgG2b, kappa, V domains shown)
VH: EVQLQQSGPEVVKPGASVKISCKASGSTLTQYYMNWVKQSHGKGLEWIGDLNPINGGTVYQQKFRDKATLTVDKSSNTAYMELRSLTSEDSALYYCTRGAEMYWGQGTTLTVSS
VL: DVVLTQTPLSLSVTIGQPASISCKSSQSIIYSNGKIYGNWFQQRPGQSPKRLMYQLSKFDPGIPDRFSGSGSETDFTLKISRVEAEDLGVYYCLQGTYSPMTFGGGTKLEIKR
notes: WT as framework
OD value at 450 nm (ref 630 nm) [3]: 0.635 OD
OD value at 450 nm (ref 630 nm) [7]: 0.814 OD
OD value at 450 nm (ref 630 nm) [8]: 0.032 OD

B9: WT 1-5 (antibody, mouse IgG2b, kappa, V domains shown)
VH: EVQLQQSGPEVVKPGASVKISCKASGYTITEYYMNWVKQSHGKGLEWIGDLNPIQGGTPYQQKFRDKATLTVDKSSNTAYMELRSLTSEDSALYYCTRGAEEYWGQGTTLTVSS
VL: DVVLTQTPLSLSVTIGQPASISCKSSQSLLYSQGKIYINWFQQRPGQSPKRLMYQLSKIDPGIPDRFSGSGSETDFTLKISRVEAEDLGVYYCLQATYSPNTFGGGTKLEIKR
notes: WT as framework
Kd [1]: 0.311 nM

B10: WT 1-2 (antibody, mouse IgG2b, kappa, V domains shown)
VH: EVQLQQSGPEVVKPGASVKISCKASGTTLTEYYMNWVKQSHGKGLEWIGDINPIQGGTPYNQKFRDKATLTVDKSSNTAYMELRSLTSEDSALYYCTRGAEEYWGQGTTLTVSS
VL: DVVLTQTPLSLSVTIGQPASISCKSSQSILYSQGKIYINWFQQRPGQSPKRLMYQLSKIDPGIPDRFSGSGSETDFTLKISRVEAEDLGVYYCLQATYTPNTFGGGTKLEIKR
notes: WT as framework
Kd [1]: 0.0856 nM

B11: Mutation 2 (antibody, mouse IgG2b, kappa, V domains shown)
VH: EVQLQQSGPEVVKPGASVKISCKASGSTLTEYYMNWVKQSHGKGLEWIGDLNPINGGTPYQQKFRDKATLTVDKSSNTAYMELRSLTSEDSALYYCTRGAEEYWGQGTTLTVSS
VL: DVVLTQTPLSLSVTIGQPASISCKSSQSIIYSNGKIYLNWFQQRPGQSPKRLMYQLSKIDPGIPDRFSGSGSETDFTLKISRVEAEDLGVYYCLQGTYSPNTFGGGTKLEIKR
notes: WT as framework
OD value at 450 nm (ref 630 nm) [3]: 2.05 OD
OD value at 450 nm (ref 630 nm) [4]: 0.077 OD
OD value at 450 nm (ref 630 nm) [5]: 0.101 OD
OD value at 450 nm (ref 630 nm) [6]: 0.189 OD
OD value at 450 nm (ref 630 nm) [7]: 2.23 OD
OD value at 450 nm (ref 630 nm) [8]: 0.551 OD

B12: WT 1-3 (antibody, mouse IgG2b, kappa, V domains shown)
VH: EVQLQQSGPEVVKPGASVKISCKASGSTITEYYMNWVKQSHGKGLEWIGDLNPINGGTPYQQKFRDKATLTVDKSSNTAYMELRSLTSEDSALYYCTKGAEEYWGQGTTLTVSS
VL: DVVLTQTPLSLSVTIGQPASISCKSSQSIIYSNGKIYINWFQQRPGQSPKRLMYQVSKIEPGIPDRFSGSGSETDFTLKISRVEAEDLGVYYCLQGTYYPNTFGGGTKLEIKR
notes: WT as framework
Kd [1]: 0.0923 nM

B13: WT 1-4 (antibody, mouse IgG2b, kappa, V domains shown)
VH: EVQLQQSGPEVVKPGASVKISCKASGTTLTEYYMNWVKQSHGKGLEWIGDVNPINGGTPYNQKFRDKATLTVDKSSNTAYMELRSLTSEDSALYYCTKGAEEYWGQGTTLTVSS
VL: DVVLTQTPLSLSVTIGQPASISCKSSQSLIYSQGKIYINWFQQRPGQSPKRLMYQISKIEPGIPDRFSGSGSETDFTLKISRVEAEDLGVYYCLQATYTPNTFGGGTKLEIKR
notes: WT as framework
Kd [1]: 0.582 nM

B14: Mutation 1 (antibody, mouse IgG2b, kappa, V domains shown)
VH: EVQLQQSGPEVVKPGASVKISCKASGSTLTDYYMNWVKQSHGKGLEWIGDLNPINGGTAYQQKFRDKATLTVDKSSNTAYMELRSLTSEDSALYYCTRGAEDYWGQGTTLTVSS
VL: DVVLTQTPLSLSVTIGQPASISCKSSQSIIYSNGKIYLNWFQQRPGQSPKRLMYQLSKLDPGIPDRFSGSGSETDFTLKISRVEAEDLGVYYCLQGTYSPQTFGGGTKLEIKR
notes: also called Variant 1
OD value at 450 nm (ref 630 nm) [3]: 2.4 OD
OD value at 450 nm (ref 630 nm) [4]: 0.089 OD
Kd [9]: 0.0521 nM
OD value at 450 nm (ref 630 nm) [5]: 0.16 OD
OD value at 450 nm (ref 630 nm) [6]: 0.288 OD
OD value at 450 nm (ref 630 nm) [7]: 2.52 OD
OD value at 450 nm (ref 630 nm) [8]: 0.695 OD

B15: WT 1-1 (antibody, mouse IgG2b, kappa, V domains shown)
VH: EVQLQQSGPEVVKPGASVKISCKASGYTITEYYMNWVKQSHGKGLEWIGDVNPINGGTPYQQKFRDKATLTVDKSSNTAYMELRSLTSEDSALYYCTKGAEEYWGQGTTLTVSS
VL: DVVLTQTPLSLSVTIGQPASISCKSSQSLLYSNGKIYINWFQQRPGQSPKRLMYQISKIEPGIPDRFSGSGSETDFTLKISRVEAEDLGVYYCLQATYSPNTFGGGTKLEIKR
notes: WT as framework
Kd [1]: 0.521 nM
